The results in this text go back to US20260055188A1 (SHENGHE CHINA BIOPHARMACEUTICAL, published 2026).

For assay [1], the target named is T1, Human-B7H3 His (manufacturer: Acro, CAT: TB73-H52E2) (human, UniProt Q5ZPR3-2 29-245).
T1 construct: also called human B7H3 protein; B7H3 protein; not shown: His tag
T1 sequence (looked up): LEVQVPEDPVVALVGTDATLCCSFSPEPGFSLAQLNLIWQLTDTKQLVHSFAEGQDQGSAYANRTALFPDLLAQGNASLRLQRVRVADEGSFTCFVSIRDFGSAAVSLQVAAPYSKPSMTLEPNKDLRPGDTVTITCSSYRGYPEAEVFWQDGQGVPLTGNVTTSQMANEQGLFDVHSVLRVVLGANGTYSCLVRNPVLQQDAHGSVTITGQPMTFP
As to the kind of experiment: ELISA: Human-B7H3 His coated (0.3 µg/mL), antibody titrated, goat anti-human IgG Fc detection, OD450 (Example 3). As to the method:
Human-B7H3 His (manufacturer: Acro, CAT: TB73-H52E2, LOT: 2052-21AXF1-YS) was diluted to 0.3 μg/mL with a coating solution (1×PBS, pH7.4), and coated into a 96-well ELISA plate at 100 μL/well overnight at 4° C. The coating solution was poured off. Each well was washed with 1×PBST at 300 μL, washed 4 times with a plate washer, and patted dry on a flat paper. It was blocked with 3% skim milk powder at 300 μL/well, and incubated at 37° C. for 1 h. The blocking solution was poured off, washed 4 times with a plate washer, and patted dry on a flat paper. Negative control and positive control were set up. […] The variable region of the antibody sequence of the positive control consists of SEQ ID NO: 1 and SEQ ID NO: 5, with the constant region of human IgG1 added (SEQ ID NO: 85 and SEQ ID NO: 86). The positive control and antibody were diluted to 10 μg/mL with 3% skim milk powder as the starting concentration, and then diluted by 3-fold gradient (11 gradients in total). A blank well was set up and only the diluent was added. It was incubated at 37° C. for 1 h at 100 μL/well. The liquid in the well was discarded, washed 4 times with a plate washer, and patted dry on a flat paper. Goat anti-human IgG Fc was diluted with 3% skim milk powder at 1:20000, and incubated at 37° C. for 1 h at 100 μL/well. It was washed 6 times with a plate washer, and patted dry on a flat paper. TMB color developing solution was added at 100 μL/well, and wrapped with aluminum foil. Color development was performed at 37° C. in the dark for 8 min. Termination solution 1M HCl was added to terminate the color development reaction at 100 μL/well. Readings were taken at 450 nm on an ELISA reader.

In assay [2] the target is T2, Human-TNFR2-His (manufacturer: SINO, CAT: 10417-H08H) (human, UniProt P20333 23-257).
T2 construct: Bought protein; also called human TNFR2 protein; TNFR2 protein; not shown: His tag
T2 sequence (looked up): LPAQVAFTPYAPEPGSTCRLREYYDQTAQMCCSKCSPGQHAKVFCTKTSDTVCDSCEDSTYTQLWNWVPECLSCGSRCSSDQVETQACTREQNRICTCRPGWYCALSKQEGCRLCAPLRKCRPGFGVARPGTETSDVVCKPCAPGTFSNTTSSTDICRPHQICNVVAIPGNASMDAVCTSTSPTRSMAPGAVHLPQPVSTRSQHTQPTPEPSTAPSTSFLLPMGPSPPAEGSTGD
As to the kind of experiment: BLI, antibody on AHC sensor, 100 nM human-TNFR2-His in solution. The method, then: The AHC sensor was soaked in 0.02% PBST (0.02% Tween 20, pH 7.4, 1×PBS) as a buffer for 600 s to remove the sucrose covering the sensor surface. The AHC sensor was equilibrated with 0.02% PBST (0.02% Tween 20, pH 7.4, 1×PBS) as a buffer for 60 s, the antibody in the sample plate was solidified for 300 s, and the secondary equilibration buffer was used for 180 s. 100 nM human-TNFR2-His (manufacturer: SINO, CAT: 10417-H08H, LOT: LC12SE2902) protein was bound to the antibody for 300 s and then dissociated for 600 s. After dissociation, 10 mM glycine (pH 2.0) was used as a regeneration buffer for 30 s. The sensor was regenerated with 10 mM glycine (pH 2.0).
A general note: BLI is a label-free optical method that tracks binding on a fibre tip over time.

The target in assay [3] is T3, Human-B7H3 Fc (manufacturer: Acro, CAT: B73-H5253) (human, UniProt Q5ZPR3-2 29-245).
T3 construct: Bought protein; not shown: Fc
T3 sequence (looked up): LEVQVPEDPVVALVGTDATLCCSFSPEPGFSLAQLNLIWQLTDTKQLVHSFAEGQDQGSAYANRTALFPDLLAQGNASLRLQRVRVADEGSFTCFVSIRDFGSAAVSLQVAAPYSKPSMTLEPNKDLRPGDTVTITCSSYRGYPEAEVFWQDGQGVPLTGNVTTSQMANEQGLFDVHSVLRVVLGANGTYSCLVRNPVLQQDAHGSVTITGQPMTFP
As to the kind of experiment: bridging ELISA: Human-B7H3 Fc coated (0.5 µg/mL), antibody titrated, then Human-TNFR2-His (0.5 µg/mL), HRP-labeled anti-His detection, OD450 (Example 4); half-maximal concentration of the bridging signal. As to the method: Human-B7H3 Fc (manufacturer: Acro, CAT: B73-H5253, LOT: 2053b-201XF1-UD) was diluted to 0.5 μg/mL with a coating solution (1×PBS, pH7.4) and coated into a 96-well ELISA plate at 100 μL/well at 4° C. overnight. The coating solution was poured off. Each well was washed with 1×PBST at 300 μL, washed 4 times with a plate washer, and patted dry on a flat paper. It was blocked with 3% skim milk powder at 300 μL/well, and incubated at 37° C. for 1 h. The blocking solution was poured off, washed 4 times with a plate washer, and patted dry on a flat paper. […] Starting at 300 nM, which was used as the initial concentration for 3-fold dilution, a total of 8 gradients were diluted, and a blank well was set up, and only diluent was added. It was incubated at 37° C. for 1 h at 100 μL/well. The liquid in the well was discarded, washed 4 times with a plate washer, and patted dry on a flat paper. Human-TNFR2-His (manufacturer: Sino, CAT: 10417-H08H, LOT: LC12SE2902) was diluted to 0.5 μg/mL, 100 μL was added to each well, and incubated at room temperature for 1 h. The plate was washed 3 times with PBST, and then the HRP-labeled his antibody was diluted with sample diluent at 1:10000, 100 μL was added to each well, and incubated at room temperature for 1 h. It was washed 6 times with a plate washer, and patted dry on a flat paper. […] Readings were taken at 450 nm on an ELISA reader.
For orientation: An ELISA detects its analyte on a solid surface through an enzyme-linked reagent.

For assay [4], the target named is T1, Human-B7H3 His (manufacturer: Acro, …). As to the kind of experiment: BLI, antibody on AHC sensor, 100 nM His-tagged protein (Acro TB73-H52E2) in solution.
The target in assay [5] is T2, Human-TNFR2-His (manufacturer: SINO, …). As to the kind of experiment: ELISA: Human-TNFR2-His coated (0.3 µg/mL), antibody titrated, goat anti-human IgG Fc detection, OD450 (Example 10). As to the method:
(§1) Human-TNFR2-His (manufacturer: SINO, CAT: 10417-H08H, LOT: LC12SE2902) was diluted to 0.3 μg/mL with a coating solution (1×PBS, pH7.4), and coated into a 96-well ELISA plate at 100 μL/well overnight at 4° C. The coating solution was poured off. Each well was washed with 1×PBST at 300 μL, washed 4 times with a plate washer, and patted dry on a flat paper. It was blocked with 3% skim milk powder at 300 μL/well, and incubated at 37° C. for 1 h. The blocking solution was poured off, washed 4 times with a plate washer, and patted dry on a flat paper. Negative control and positive control were set up. […] The positive control and antibody were diluted to 10 μg/mL with 3% skim milk powder as the starting concentration, and then diluted by 3-fold gradient (11 gradients in total). A blank well was set up and only the diluent was added. It was incubated at 37° C. for 1 h at 100 μL/well. The liquid in the well was discarded, washed 4 times with a plate washer, and patted dry on a flat paper. Goat anti-human IgG Fc was diluted with 3% skim milk powder at 1:20000, and incubated at 37° C. for 1 h at 100 μL/well. It was washed 6 times with a plate washer, and patted dry on a flat paper. TMB color developing solution was added at 100 μL/well, and wrapped with aluminum foil. Color development was performed at 37° C. in the dark for 8 min. […] Readings were taken at 450 nm on an ELISA reader.

Assay [6] shares this target. Described as above. As to the method:
as §1
The source holds these as a separate data set.

Assay [7] addresses T4, human CD24 on MCF-7 tumor cells (human, UniProt P25063 27-59).
T4 construct: whole, on cells; also called CD24 protein; MCF-7 tumor cells with high expression of human CD24
T4 chain (looked up): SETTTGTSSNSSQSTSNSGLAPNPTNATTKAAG
As to the kind of experiment: flow cytometry on MCF-7 cells, 150 nM antibody, anti-human IgG Fc detection. The method, then:
100 μL of dilution was added to the blank control group, and 100 μL of fluorescent secondary antibody dilution was added to the rest of the sample groups respectively. After incubation for 0.5 h at room temperature and 4° C. protected from light, PBS was added to wash and centrifuged (3000 rpm, 3 min) twice. After discarding the supernatant, 80 μL of the dilution was added and resuspended.
On the technique in general: Flow cytometry measures light scatter and fluorescence of single cells or particles in a stream.

Read-outs that look alike come from different tables or passages of the source.

B1: TB-C1 (bispecific antibody, human IgG1, kappa)
light: DIVMTQSPATLSVTPGDRVSLSCRASQSISDYLHWYQQKSHESPRLLIKYASQSISGIPSRFSGSGSGSDFTLSINSVEPEDVGVYYCQNGHSFPLTFGAGTKLELKRTVAAPSVFIFPPSDEQLKSGTASVVCLLNNFYPREAKVQWKVDNALQSGNSQESVTEQDSKDSTYSLSSTLTLSKADYEKHKVYACEVTHQGLSSPVTKSFNRGEC
heavy: not shown
notes: also called antibody TB-C1
Turning to B1, the “EC50 (read off the curve)” value in assay [1] was about 0.3 nM. Besides, in assay [2], the Kd was determined as 2.89 nM, the koff amounted to 0.000665 s⁻¹ and the kon was found to be 230000 M⁻¹ s⁻¹. Besides, in assay [3], the “EC50 (read off the curve)” value was about 0.5 nM. In assay [4], the Kd was 159 nM, the koff is 0.00174 s⁻¹ and the kon was determined as 10900 M⁻¹ s⁻¹.

B2: anti-TNFR2 control antibody (variable region SEQ ID NO: 83 and SEQ ID NO: 84, constant region of human IgG1 SEQ ID NO: 85 and SEQ ID NO: 86) (antibody, V domains shown)
VH: EVQLVQSGAEVKKPGATVKISCKVSGYSITDYLLHWVQQAPGKGLEWMGWIDPEDAKTKYGQKFQSRVTITADTSTDTAYMELSSLRSEDTAVYYCAANSGTGTMDAWGQGTLVTVSS
VL: DIVMTQSPATLSVSPGERATLSCKASQNVGSNVDWYQQKPGQSPRVLIYKASIRYTGIPARFSGSGSGTEFTLTISILQSEDFAVYFCMQSKSYPITFGQGTKLEIKR
notes: also called Positive control 1
Turning to B2, the “EC50 (read off the curve)” value in assay [5] is about 0.03 nM. Besides, the “EC50 (read off the curve)” value in assay [6] is about 0.03 nM. In assay [2], this molecule showed a Kd of 0.324 nM, a koff of 0.000127 s⁻¹ and a kon of 391000 M⁻¹ s⁻¹.

B3: anti-CD24 control antibody (variable region SEQ ID NO: 9 and SEQ ID NO: 13, constant region of human IgG1 SEQ ID NO: 85 and SEQ ID NO: 86) (antibody, V domains shown)
VH: EVQLQESGPGLVKPSQTLSLTCTVSGYSITSGYTWHWIRQFPGNKLEWIGHIQYTGNTKYNPSLESRITISRDTSKNQFSLKLSSVTAADTATYYCARGSTNSNDYWGQGTLVTVSS
VL: DIVMTQSPSSLAVSLGERATINCKSSQSLLYSNDQKNYLAWYQQKPGQSPKLLIYWASTRESGVPDRFSGSGSGTDFTLTISSLQAEDVAVYYCQQYFIYPLTFGGGTKLELKR
In the case of B3, in assay [7], the “E1 Mean PE-A” value was 4.45e+06.

B4: Positive control 2 (variable region SEQ ID NO: 41) (VHH)
VHH: EVQLVESGGGLVQPGGSLRLSCAASGSRLDYYAVAWFRQAPGKEREEVSCITYSGGSTNYAESVKGRFTISRDNSKNTLYLQMNSLRAEDTAVYYCTTEPYGSSCPLSGYDTWGQGTLVTVSS
notes: not shown: it was loaded on an AHC (anti-human Fc) sensor
With B4, the “EC50 (read off the curve)” value in assay [5] was about 0.05 nM. Moreover, in assay [2], binding was characterised by a dissociation constant (Kd) of 1.61 nM, the koff is 0.000427 s⁻¹ and the kon came to 266000 M⁻¹ s⁻¹.

As usually defined, the EC50 (read off the curve) is the midpoint of the concentration-response curve. As a reminder, the Kd is the concentration at which binding is half-saturated. Low values mean higher affinity, high ones lower affinity. Usually koff stands for the first-order rate constant of dissociation. Read a high koff as fast dissociation. The kon is the rate constant with which the complex forms.
